From patent publication US20160115500A1 (University of California, published 2016)

T1: GST-ABI2 (UniProt O04719 1-423)
T1 sequence (looked up): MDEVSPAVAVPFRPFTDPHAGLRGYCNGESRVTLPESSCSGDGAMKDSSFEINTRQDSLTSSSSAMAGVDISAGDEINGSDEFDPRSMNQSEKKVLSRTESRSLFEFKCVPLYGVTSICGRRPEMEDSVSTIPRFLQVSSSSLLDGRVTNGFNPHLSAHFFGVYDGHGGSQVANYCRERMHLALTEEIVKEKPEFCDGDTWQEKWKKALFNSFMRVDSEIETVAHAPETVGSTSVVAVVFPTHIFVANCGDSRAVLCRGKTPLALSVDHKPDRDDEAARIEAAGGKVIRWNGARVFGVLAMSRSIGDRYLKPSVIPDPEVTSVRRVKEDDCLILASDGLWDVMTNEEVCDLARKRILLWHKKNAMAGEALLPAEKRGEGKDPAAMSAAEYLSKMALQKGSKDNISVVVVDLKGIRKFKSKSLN

T2: GST-HAB1 (UniProt Q9CAJ0 23-511)
T2 sequence (looked up): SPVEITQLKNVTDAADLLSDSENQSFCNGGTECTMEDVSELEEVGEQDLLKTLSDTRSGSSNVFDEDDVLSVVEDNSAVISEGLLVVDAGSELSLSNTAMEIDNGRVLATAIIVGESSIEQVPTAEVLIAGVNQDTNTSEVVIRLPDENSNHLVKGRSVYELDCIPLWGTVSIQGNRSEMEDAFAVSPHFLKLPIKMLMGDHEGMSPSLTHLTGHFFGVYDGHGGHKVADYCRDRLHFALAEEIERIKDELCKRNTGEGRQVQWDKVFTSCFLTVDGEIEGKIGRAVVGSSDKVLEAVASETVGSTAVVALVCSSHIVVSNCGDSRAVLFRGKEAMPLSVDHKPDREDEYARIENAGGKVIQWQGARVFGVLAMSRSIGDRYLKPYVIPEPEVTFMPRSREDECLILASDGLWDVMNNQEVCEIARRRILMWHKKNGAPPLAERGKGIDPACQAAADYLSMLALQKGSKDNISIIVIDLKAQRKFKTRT

T3: GST-ABI1 (UniProt P49597 1-434)
T3 sequence (looked up): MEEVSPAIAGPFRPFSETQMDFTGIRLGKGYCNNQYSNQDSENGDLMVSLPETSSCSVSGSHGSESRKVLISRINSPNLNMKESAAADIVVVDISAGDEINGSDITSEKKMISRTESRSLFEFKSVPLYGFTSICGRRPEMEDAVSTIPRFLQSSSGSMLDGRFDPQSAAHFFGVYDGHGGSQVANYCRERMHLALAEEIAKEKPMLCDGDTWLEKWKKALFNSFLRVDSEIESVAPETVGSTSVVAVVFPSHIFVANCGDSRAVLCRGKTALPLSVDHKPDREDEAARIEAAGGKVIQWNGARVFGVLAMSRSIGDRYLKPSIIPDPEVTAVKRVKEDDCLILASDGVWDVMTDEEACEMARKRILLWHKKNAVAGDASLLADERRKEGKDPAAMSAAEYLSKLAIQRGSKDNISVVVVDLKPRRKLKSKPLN

T4: 6×-His tagged PYR1^K59R,F108A,S122G
T4 chain: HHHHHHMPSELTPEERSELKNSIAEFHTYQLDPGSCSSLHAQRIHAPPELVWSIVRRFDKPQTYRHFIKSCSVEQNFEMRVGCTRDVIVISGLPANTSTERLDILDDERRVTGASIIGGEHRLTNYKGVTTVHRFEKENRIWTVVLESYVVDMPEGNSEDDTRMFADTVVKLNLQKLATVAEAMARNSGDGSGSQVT

T5: 6×-His-PYR1^MANDI
T5 chain: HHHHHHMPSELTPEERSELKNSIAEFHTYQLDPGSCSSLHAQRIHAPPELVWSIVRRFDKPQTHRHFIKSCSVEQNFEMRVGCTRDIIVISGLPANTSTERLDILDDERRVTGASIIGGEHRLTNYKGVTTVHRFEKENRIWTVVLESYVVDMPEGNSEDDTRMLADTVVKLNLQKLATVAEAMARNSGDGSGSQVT


How the values were obtained:
[1] = molecular target: GAL4 activation domain fusion (ACT) to HAB1 (UniProt Q9CAJ0); test: yeast two-hybrid, X-gal; lowest mandipropamid concentration giving signal
[2] = molecular target: T1, GST-ABI2; test: cell-based or functional assay
[3] = molecular target: T2, GST-HAB1; test: cell-based or functional assay
[4] = molecular target: T3, GST-ABI1; test: cell-based or functional assay
[5] = molecular target: T4, 6×-His tagged PYR1^K59R,F108A,S122G
[6] = molecular target: T5, 6×-His-PYR1^MANDI

Row | Molecule | PP2C activity (pNPP substrate), 600 nM PP2C and 1200 nM receptor [5] | PP2C activity (pNPP substrate), 600 nM PP2C and 1200 nM receptor [6] | other results
1 | PYR1^Y58H,K59R,V81I,F108A,F159L (from UniProt P04386 1-147) (receptor) | – | – | Threshold [1]: 0.01 µM
2 | 6×-His-PYR1^MANDI (receptor) HHHHHHMPSELTPEERSELKNSIAEFHTYQLDPGSCSSLHAQRIHAPPELVWSIVRRFDKPQTHRHFIKSCSVEQNFEMRVGCTRDIIVISGLPANTSTERLDILDDERRVTGASIIGGEHRLTNYKGVTTVHRFEKENRIWTVVLESYVVDMPEGNSEDDTRMLADTVVKLNLQKLATVAEAMARNSGDGSGSQVT | – | – | IC50 of mandipropamid mediated inhibition of PP2C activity (4-methylumbelliferyl-phosphate substrate) [2]: 75.5 nM; IC50 of mandipropamid mediated inhibition of PP2C activity (4-methylumbelliferyl-phosphate substrate) [3]: 32.2 nM; IC50 of mandipropamid mediated inhibition of PP2C activity (4-methylumbelliferyl-phosphate substrate) [4]: 26.8 nM
3 | GST-ABI2 (protein) MDEVSPAVAVPFRPFTDPHAGLRGYCNGESRVTLPESSCSGDGAMKDSSFEINTRQDSLTSSSSAMAGVDISAGDEINGSDEFDPRSMNQSEKKVLSRTESRSLFEFKCVPLYGVTSICGRRPEMEDSVSTIPRFLQVSSSSLLDGRVTNGFNPHLSAHFFGVYDGHGGSQVANYCRERMHLALTEEIVKEKPEFCDGDTWQEKWKKALFNSFMRVDSEIETVAHAPETVGSTSVVAVVFPTHIFVANCGDSRAVLCRGKTPLALSVDHKPDRDDEAARIEAAGGKVIRWNGARVFGVLAMSRSIGDRYLKPSVIPDPEVTSVRRVKEDDCLILASDGLWDVMTNEEVCDLARKRILLWHKKNAMAGEALLPAEKRGEGKDPAAMSAAEYLSKMALQKGSKDNISVVVVDLKGIRKFKSKSLN | saturable inhibition of HAB1 and ABI2 PP2C activity by mandipropamid in the presence of PYR1^MANDI (FIG. 1A, bottom lines) and PYR1^K59R,F108A,S122G | saturable inhibition of HAB1 and ABI2 PP2C activity by mandipropamid in the presence of PYR1^MANDI | –
4 | GST-HAB1 (protein) SPVEITQLKNVTDAADLLSDSENQSFCNGGTECTMEDVSELEEVGEQDLLKTLSDTRSGSSNVFDEDDVLSVVEDNSAVISEGLLVVDAGSELSLSNTAMEIDNGRVLATAIIVGESSIEQVPTAEVLIAGVNQDTNTSEVVIRLPDENSNHLVKGRSVYELDCIPLWGTVSIQGNRSEMEDAFAVSPHFLKLPIKMLMGDHEGMSPSLTHLTGHFFGVYDGHGGHKVADYCRDRLHFALAEEIERIKDELCKRNTGEGRQVQWDKVFTSCFLTVDGEIEGKIGRAVVGSSDKVLEAVASETVGSTAVVALVCSSHIVVSNCGDSRAVLFRGKEAMPLSVDHKPDREDEYARIENAGGKVIQWQGARVFGVLAMSRSIGDRYLKPYVIPEPEVTFMPRSREDECLILASDGLWDVMNNQEVCEIARRRILMWHKKNGAPPLAERGKGIDPACQAAADYLSMLALQKGSKDNISIIVIDLKAQRKFKTRT | saturable inhibition of HAB1 and ABI2 PP2C activity by mandipropamid in the presence of PYR1^MANDI (FIG. 1A, bottom lines) and PYR1^K59R,F108A,S122G | saturable inhibition of HAB1 and ABI2 PP2C activity by mandipropamid in the presence of PYR1^MANDI | –
